± gives the uncertainty stated by the source.
Test: self-splicing fitness, log relative to wild type (ln ratio); higher = more splicing; Tetrahymena group I intron in knt gene, E. coli kanamycin selection, DiMSum; sequences stand for … in CUCUCU…GGAGGGAAAAGUUAUCAGGCAUGCACCUGGUAGCUAGUCUUUAAACCAAUAGAUUGCAUCGGUUUAAAAGGCAAGACCGUCAAAUUGCGGGAAAGGGGUCAACAGCCGUUCAGUACCAAGUCUCAGGGGAAACUUUGAGAUGGCCUUGCAAAGGGUAUGGUAAUAAGCUGACGGACAUGGUCCUAACCACGCAGCCAAGUCCUAAGUCAACAGAUCUUCUGUUGAUAUGGAUGCAGUUCACAGACUAAAUGUCGGUCGGGGAAGAUGUAUUCUUCUCAUAAGAUAUAGUCGGACCUCUCCUUAAUGGGAGCUAGCGGAUGAAGUGAUGCAACACUGGAGCCGCUGGGAACUAAUUUGUAUGCGAAAGUAUAUUGAUUAGUUUUGGAGUACUCGUGGUCG
Method in brief: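 DiMSum derived fitness as the error-weighted combination of fold changes across replicates, kanamycin versus no kanamycin, normalised to wild type. E. coli BL21(DE3) held the library, which randomised all eight P1ex-region intron nucleotides within the knt kanamycin-resistance gene on pET-22b(+). Six replicate transformations grew overnight at 37°C or 30°C on LB agar with or without 25 μg/mL kanamycin, also containing 100 μg/mL carbenicillin, 50 μM IPTG and 0.2% rhamnose, and pooled colonies were amplicon-sequenced on an Illumina HiSeq 2500.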

Sequence | self-splicing fitness (ln) (30 °C) | self-splicing fitness (ln) (37 °C)
AUCCAGCAAUAUUACGGGGU | -4.35 ± 0.18 | -2.19 ± 0.13
AUCCAGCAAUAUUACGGUAC | -1.77 ± 0.12 | -0.693 ± 0.14
AUCCAGCAAUAUUACGUAGG | -2.91 ± 0.14 | -1.49 ± 0.12
AUCCAGCAAUAUUACGUUUC | -4.16 ± 0.25 | -2.05 ± 0.2
AUCGAGCAAUAUUACGAGAC | -1.99 ± 0.32 | 
AUCGAGCAAUAUUACGAGCG | -2.35 ± 0.33 | -1.81 ± 0.27
AUCGAGCAAUAUUACGCACU | -1.25 ± 0.12 | -0.213 ± 0.14
AUCGAGCAAUAUUACGCAUG | -3.62 ± 0.37 | -2.62 ± 0.26
AUCGAGCAAUAUUACGCCCU | -3.05 ± 0.36 | 
AUCGAGCAAUAUUACGCGCG | -2.29 ± 0.15 | -0.653 ± 0.16
AUCGAGCAAUAUUACGGUGC | -2.54 ± 0.16 | -3.15 ± 0.43
AUCGAGCAAUAUUACGGUGU | -2.74 ± 0.1 | -1.71 ± 0.14
AUCGAGCAAUAUUACGUCAA | -2.72 ± 0.25 | -1.3 ± 0.29
AUCGAGCAAUAUUACGUCAC |  | -1.29 ± 0.45
AUCGAGCAAUAUUACGUUCG | -3.25 ± 0.2 | -2.52 ± 0.24
AUCUAGCAAUAUUACGAAUU | -2.94 ± 0.18 | -1.74 ± 0.19
AUCUAGCAAUAUUACGACUA | -0.918 ± 0.2 | -0.511 ± 0.16
AUCUAGCAAUAUUACGAGCA | -0.993 ± 0.18 | -0.654 ± 0.2
AUCUAGCAAUAUUACGCAAA | -2.59 ± 0.29 | -3.24 ± 0.39
AUCUAGCAAUAUUACGCAGC | -2.64 ± 0.35 | -2.06 ± 0.31
AUCUAGCAAUAUUACGCGCU | -1.97 ± 0.23 | -0.909 ± 0.2
AUCUAGCAAUAUUACGCUAA | -2.07 ± 0.12 | -0.871 ± 0.12
AUCUAGCAAUAUUACGCUGU | -1.61 ± 0.14 | -1.17 ± 0.18
AUCUAGCAAUAUUACGCUUU | -2.3 ± 0.17 | -0.151 ± 0.12
AUCUAGCAAUAUUACGGAUA | -3 ± 0.46 | -2.05 ± 0.26

Sequence | self-splicing fitness (ln) (30 °C) | self-splicing fitness (ln) (37 °C)
AUCUAGCAAUAUUACGGCGA | -0.505 ± 0.14 | -0.448 ± 0.16
AUCUAGCAAUAUUACGGUAU | -1.54 ± 0.1 | -1.19 ± 0.13
AUCUAGCAAUAUUACGGUUC | -2.94 ± 0.32 | -2.34 ± 0.32
AUCUAGCAAUAUUACGUAAA | -2.41 ± 0.15 | -1.29 ± 0.14
AUCUAGCAAUAUUACGUACG | -2.01 ± 0.23 | -1.04 ± 0.2
AUCUAGCAAUAUUACGUCGU | -0.83 ± 0.1 | -1.21 ± 0.11
AUCUAGCAAUAUUACGUGAG | -0.412 ± 0.095 | -0.00344 ± 0.17
AUCUAGCAAUAUUACGUGGU |  | -2.85 ± 0.38
AUCUAGCAAUAUUACGUUCG | -1.28 ± 0.091 | -0.393 ± 0.11
AUCUAGCAAUAUUACGUUGC | -3.28 ± 0.28 | -3.03 ± 0.37
AUGAAGCAAUAUUACGAACA | -0.423 ± 0.1 | 0.795 ± 0.15
AUGAAGCAAUAUUACGAAGG | -2.57 ± 0.18 | -0.569 ± 0.19
AUGAAGCAAUAUUACGAAGU | -1.21 ± 0.1 | -0.533 ± 0.12
AUGAAGCAAUAUUACGACAG | 0.129 ± 0.068 | 0.414 ± 0.095
AUGAAGCAAUAUUACGAGCA | -0.665 ± 0.084 | -0.299 ± 0.083
AUGAAGCAAUAUUACGCAUA | -0.0747 ± 0.071 | -0.57 ± 0.082
AUGAAGCAAUAUUACGCAUG | -0.801 ± 0.077 | 0.175 ± 0.085
AUGAAGCAAUAUUACGCGUA | -0.537 ± 0.061 | -0.226 ± 0.07
AUGAAGCAAUAUUACGCUUU | -3.68 ± 0.2 | -2.11 ± 0.21
AUGAAGCAAUAUUACGGAUC | -0.696 ± 0.09 | -0.0788 ± 0.099
AUGAAGCAAUAUUACGGGAA | -1.83 ± 0.11 | -0.953 ± 0.14
AUGAAGCAAUAUUACGGUAA | -1.22 ± 0.065 | -0.5 ± 0.088
AUGAAGCAAUAUUACGGUCU | -0.0448 ± 0.069 | 0.658 ± 0.087
AUGAAGCAAUAUUACGUACC | -0.639 ± 0.067 | 0.16 ± 0.1
AUGAAGCAAUAUUACGUCAU | -2.43 ± 0.093 | -1.19 ± 0.083

Sequence | self-splicing fitness (ln) (30 °C) | self-splicing fitness (ln) (37 °C)
AUGAAGCAAUAUUACGUCCC | 0.721 ± 0.15 | -0.534 ± 0.14
AUGAAGCAAUAUUACGUGUG | -1.18 ± 0.059 | -0.763 ± 0.078
AUGCAGCAAUAUUACGAAUG | -2.15 ± 0.17 | -2.51 ± 0.28
AUGCAGCAAUAUUACGACCG | -1.66 ± 0.29 | -1.07 ± 0.3
AUGCAGCAAUAUUACGACUA | -0.708 ± 0.12 | -0.187 ± 0.11
AUGCAGCAAUAUUACGAGGC | -1.94 ± 0.23 | -2.34 ± 0.33
AUGCAGCAAUAUUACGAUCG | -1.8 ± 0.084 | -1.16 ± 0.11
AUGCAGCAAUAUUACGCAAA | -2.6 ± 0.13 | -0.0469 ± 0.14
AUGCAGCAAUAUUACGCUUA | -1.26 ± 0.1 | -0.294 ± 0.094
AUGCAGCAAUAUUACGGACU | -0.194 ± 0.073 | 0.429 ± 0.094
AUGCAGCAAUAUUACGGAGA | -4.25 ± 0.44 | -4.21 ± 0.34
AUGCAGCAAUAUUACGGAUA | -2.99 ± 0.17 | -2.22 ± 0.17
AUGCAGCAAUAUUACGGAUU | -1.57 ± 0.071 | -1.14 ± 0.1
AUGCAGCAAUAUUACGGCGA | -0.313 ± 0.1 | 0.239 ± 0.13
AUGCAGCAAUAUUACGGCUA | 0.452 ± 0.11 | 0.366 ± 0.12
AUGCAGCAAUAUUACGGGCA | -0.699 ± 0.11 | 0.227 ± 0.12
AUGCAGCAAUAUUACGUACU | 0.346 ± 0.055 | 0.441 ± 0.07
AUGCAGCAAUAUUACGUGGG |  | -2.97 ± 0.28
AUGCAGCAAUAUUACGUUAU | -2.45 ± 0.079 | -1.24 ± 0.078
AUGCAGCAAUAUUACGUUGC | -4.01 ± 0.18 | -2.25 ± 0.24
AUGGAGCAAUAUUACGAGGG | -3.96 ± 0.35 | -2.55 ± 0.42
AUGGAGCAAUAUUACGCCUU | -2.22 ± 0.18 | -2.41 ± 0.3
AUGGAGCAAUAUUACGCGUG | -3.24 ± 0.16 | -1.15 ± 0.14
AUGGAGCAAUAUUACGCUAU | -3.89 ± 0.15 | -2.4 ± 0.22
AUGGAGCAAUAUUACGGCUU | -2.98 ± 0.29 | -1.83 ± 0.38

Sequence | self-splicing fitness (ln) (30 °C) | self-splicing fitness (ln) (37 °C)
AUGGAGCAAUAUUACGGGCC | -2.63 ± 0.39 | 
AUGGAGCAAUAUUACGGGUC | -4.63 ± 0.29 | -3.52 ± 0.28
AUGGAGCAAUAUUACGGUGA | -2.9 ± 0.44 | 
AUGGAGCAAUAUUACGUUAC | -3.1 ± 0.25 | 
AUGGAGCAAUAUUACGUUGA |  | -2.38 ± 0.2
AUGGAGCAAUAUUACGUUGU | -2.69 ± 0.17 | -2.48 ± 0.23
AUGUAGCAAUAUUACGAAUA | -2.75 ± 0.26 | -1.22 ± 0.21
AUGUAGCAAUAUUACGACUU | -0.0543 ± 0.089 | -0.312 ± 0.088
AUGUAGCAAUAUUACGAGCU | -0.582 ± 0.14 | -0.987 ± 0.2
AUGUAGCAAUAUUACGCACC | -1.63 ± 0.15 | -0.228 ± 0.18
AUGUAGCAAUAUUACGCCCG | -0.83 ± 0.22 | -0.891 ± 0.33
AUGUAGCAAUAUUACGCCGU | -1.43 ± 0.14 | -0.29 ± 0.14
AUGUAGCAAUAUUACGCGUA | -1.66 ± 0.13 | -0.708 ± 0.14
AUGUAGCAAUAUUACGCGUU | -3.57 ± 0.18 | -1.99 ± 0.17
AUGUAGCAAUAUUACGCUUC | -2.5 ± 0.23 | -2.2 ± 0.28
AUGUAGCAAUAUUACGGAAC |  | -1.16 ± 0.41
AUGUAGCAAUAUUACGGACG | -3.24 ± 0.2 | -1.09 ± 0.13
AUGUAGCAAUAUUACGGACU | -0.734 ± 0.11 | -0.231 ± 0.14
AUGUAGCAAUAUUACGGCAG | -0.715 ± 0.073 | 0.288 ± 0.11
AUGUAGCAAUAUUACGGGGA | -2.26 ± 0.21 | -2.48 ± 0.21
AUGUAGCAAUAUUACGGGUC | -3.49 ± 0.4 | -2.95 ± 0.43
AUGUAGCAAUAUUACGGUAU | -1.24 ± 0.093 | -0.0188 ± 0.11
AUGUAGCAAUAUUACGGUGG | -3.1 ± 0.27 | -2.77 ± 0.24

Reference: the supplement of paper PMC7877785
